From patent US12528864

Biological target: human CD96, native, on primary human T cells (human) (UniProt P40200)
Assay: flow cytometry on primary human CD3+ T cells

Binder | EC50 [nM]
42Y073-86F04-4 (antibody, V domains shown) VH: QVQLVQSGAEVKKPGSSVKVSCKASGGTFESEAISWVRQAPGQGLEWMGGIIPIFGRARYAQKFQGRVTITADESTSTAYMELSSLRSEDTAVYYCARLLGESGMDVWGQGTTVTVSS VL: DIQMTQSPSSLSASVGDRVTITCRASQSISSYLNWYQQKPGKAPKLLIYAASSLQSGVPSRFSGSGSGTDFTLTISSLQPEDFATYYCQQPYFSPPTFGGGTKVEIK | 0.05
42Y073-86F04-3 (antibody, V domains shown) VH: QVQLVQSGAEVKKPGSSVKVSCKASGGTFSYNAISWVRQAPGQGLEWMGGIIPIMGTARYAQKFQGRVTITADESTSTAYMELSSLRSEDTAVYYCARLLGESGMDVWGQGTTVTVSS VL: DIQMTQSPSSLSASVGDRVTITCRASQSISSYLNWYQQKPGKAPKLLIYAASSLQSGVPSRFSGSGSGTDFTLTISSLQPEDFATYYCQQPYFSPPTFGGGTKVEIK | 0.09
42Y073-1A01-191 (antibody, V domains shown) VH: QVQLVQSGAEVKKPGASVKVSCKASGYTFTKYRMHWVRQAPGQGLEWMGIINPQGGSTSYAQKFQGRVTMTRDTSTSTVYMELSSLRSEDTAVYYCARETAYYTTKGNWFDPWGQGTLVTVSA VL: DIQMTQSPSSLSASVGDRVTITCRASQSISSYLNWYQQKPGKAPKLLIYAASSLQSGVPSRFSGSGSGTDFTLTISSLQPEDFATYYCQQSLYPPRTFGGGTKVEIK | 0.38
42Y073-86F04-5 (antibody, V domains shown) VH: QVQLVQSGAEVKKPGSSVKVSCKASGGTFSSHAISWVRQAPGQGLEWMGGIIPIFGRGKYAQKFQGRVTITADESTSTAYMELSSLRSEDTAVYYCARLLGESGMDVWGQGTTVTVSS VL: DIQMTQSPSSLSASVGDRVTITCRASQSISSYLNWYQQKPGKAPKLLIYAASSLQSGVPSRFSGSGSGTDFTLTISSLQPEDFATYYCQQPYFSPPTFGGGTKVEIK | 0.05
42Y073-1A01-85 (antibody, V domains shown) VH: QVQLVQSGAEVKKPGASVKVSCKASGYTFTSYPMHWVRQAPGQGLEWMGIINPSGGFTSYAQKFQGRVTMTRDTSTSTVYMELSSLRSEDTAVYYCARETAYYTTKGNWFDPWGQGTLVTVSA VL: DIQMTQSPSSLSASVGDRVTITCRASQSISSYLNWYQQKPGKAPKLLIYAASSLQSGVPSRFSGSGSGTDFTLTISSLQPEDFATYYCQQSLYPPRTFGGGTKVEIK | 0.32
42Y073-86F08-3 (antibody, V domains shown) VH: QVQLVQSGAEVKKPGSSVKVSCKASGGTFVNYAISWVRQAPGQGLEWMGGIIPALGTANYAQKFQGRVTITADESTSTAYMELSSLRSEDTAVYYCARGAGYYGDKDPMDVWGQGTTVTVSS VL: DIQLTQSPSSLSASVGDRVTITCRASQSISSYLNWYQQKPGKAPKLLIYAASSLQSGVPSRFSGSGSGTDFTLTISSLQPEDFATYYCQQVLHTITFGGGTKVEIK | 0.05
42Y073-86F08-22 (antibody, V domains shown) VH: QVQLVQSGAEVKKPGASVKVSCKASGYTFDSYAMHWVRQAPGQGLEWMGGIIPIFGTAWYAQKFQGRVTITADESTSTAYMELSSLRSEDTAVYYCARGAGYYGDKDPMDVWGQGTTVTVSS VL: DIQLTQSPSSLSASVGDRVTITCRASQSISSYLNWYQQKPGKAPKLLIYAASSLQSGVPSRFSGSGSGTDFTLTISSLQPEDFATYYCQQVLHTITFGGGTKVEIK | 0.18
42Y073-86F08-8 (antibody, V domains shown) VH: QVQLVQSGAEVKKPGSSVKVSCKASGGTFWLYAISWVRQAPGQGLEWMGGIIPQLGTANYAQKFQGRVTITADESTSTAYMELSSLRSEDTAVYYCARGAGYYGDKDPMDVWGQGTTVTVSS VL: DIQLTQSPSSLSASVGDRVTITCRASQSISSYLNWYQQKPGKAPKLLIYAASSLQSGVPSRFSGSGSGTDFTLTISSLQPEDFATYYCQQVLHTITFGGGTKVEIK | 0.04
42Y073-86F08-47 (antibody, V domains shown) VH: QVQLVQSGAEVKKPGSSVKVSCKASGGTFSQYAIHWVRQAPGQGLEWMGVIIPIFGKANYAQKFQGRVTITADESTSTAYMELSSLRSEDTAVYYCARGAGYYGDKDPMDVWGQGTTVTVSS VL: DIQLTQSPSSLSASVGDRVTITCRASQSISSYLNWYQQKPGKAPKLLIYAASSLQSGVPSRFSGSGSGTDFTLTISSLQPEDFATYYCQQVLHTITFGGGTKVEIK | 0.03

Binders with a lower EC50, results first:

EC50 [nM] | Binder
0.01 | 42Y073-1A01-100 (antibody, V domains shown) VH: QVQLVQSGAEVKKPGASVKVSCKASGYTFTTYRMHWVRQAPGQGLEWMGIINPSGGLTQYAQKFQGRVTMTRDTSTSTVYMELSSLRSEDTAVYYCARETAYYTTKGNWFDPWGQGTLVTVSS VL: DIQMTQSPSSLSASVGDRVTITCRASQSISSYLNWYQQKPGKAPKLLIYAASSLQSGVPSRFSGSGSGTDFTLTISSLQPEDFATYYCQQSLYPPRTFGGGTKVEIK
0.01 | 42Y073-86F04-6 (antibody, V domains shown) VH: QVQLVQSGAEVKKPGSSVKVSCKASGGTFSGHAISWVRQAPGQGLEWMGGIIPIFGRARYAQKFQGRVTITADESTSTAYMELSSLRSEDTAVYYCARLLGESGMDVWGQGTTVTVSS VL: DIQMTQSPSSLSASVGDRVTITCRASQSISSYLNWYQQKPGKAPKLLIYAASSLQSGVPSRFSGSGSGTDFTLTISSLQPEDFATYYCQQPYFSPPTFGGGTKVEIK
0.01 | 42Y073-1A01-103 (antibody, V domains shown) VH: QVQLVQSGAEVKKPGASVKVSCKASGYTFTAYQMHWVRQAPGQGLEWMGIINPAGGWTSYAQKFQGRVTMTRDTSTSTVYMELSSLRSEDTAVYYCARETAYYTTKGNWFDPWGQGTLVTVSS VL: DIQMTQSPSSLSASVGDRVTITCRASQSISSYLNWYQQKPGKAPKLLIYAASSLQSGVPSRFSGSGSGTDFTLTISSLQPEDFATYYCQQSLYPPRTFGGGTKVEIK
0.01 | 42Y073-86F04-18 (antibody, V domains shown) VH: QVQLVQSGAEVKKPGSSVKVSCKASGGTFSSRAISWVRQAPGQGLEWMGGIIPIMGTARYAQKFQGRVTITADESTSTAYMELSSLRSEDTAVYYCARLLGESGMDVWGQGTTVTVSS VL: DIQMTQSPSSLSASVGDRVTITCRASQSISSYLNWYQQKPGKAPKLLIYAASSLQSGVPSRFSGSGSGTDFTLTISSLQPEDFATYYCQQPYFSPPTFGGGTKVEIK
0.01 | 42Y073-86F08-4 (antibody, V domains shown) VH: QVQLVQSGAEVKKPGSSVKVSCKASGGTFSEYAIHWVRQAPGQGLEWMGNIIPIFGTAGYAQKFQGRVTITADESTSTAYMELSSLRSEDTAVYYCARGAGYYGDKDPMDVWGQGTTVTVSS VL: DIQLTQSPSSLSASVGDRVTITCRASQSISSYLNWYQQKPGKAPKLLIYAASSLQSGVPSRFSGSGSGTDFTLTISSLQPEDFATYYCQQVLHTITFGGGTKVEIK
0.01 | 42Y073-86F08-17 (antibody, V domains shown) VH: QVQLVQSGAEVKKPGSSVKVSCKASGGTFREYAISWVRQAPGQGLEWMGGIIPVFGTANYAQKFQGRVTITADESTSTAYMELSSLRSEDTAVYYCARGAGYYGDKDPMDVWGQGTTVTVSS VL: DIQLTQSPSSLSASVGDRVTITCRASQSISSYLNWYQQKPGKAPKLLIYAASSLQSGVPSRFSGSGSGTDFTLTISSLQPEDFATYYCQQVLHTITFGGGTKVEIK
